In patent US9266964:

Each binder was assayed against T1, human plasma kallikrein (human, UniProt P03952 20-390; P03952 391-638) (assay: ELISA; signal on coated biotinylated human plasma kallikrein divided by signal on streptavidin; Fab).
T1 construct: two disulfide-linked chains; also called pKal; human pKal
Excerpt: Abbreviations used: "T/B" is the ELISA signal obtained using of the target (biotinylated plasma kallikrein) divided by the ELISA signal of the "background" (streptavidin); both of which were coated on microtiter plates. "nd" is not determined. The symbol "q" refers to the amber suppressible stop codon (TAG), which is translated as glutamine (Q) in strains of E. coli such as the TG1 cells that were used to express the Fab fragments.
T1 sequence (P03952 20-390, chain 1 of 2): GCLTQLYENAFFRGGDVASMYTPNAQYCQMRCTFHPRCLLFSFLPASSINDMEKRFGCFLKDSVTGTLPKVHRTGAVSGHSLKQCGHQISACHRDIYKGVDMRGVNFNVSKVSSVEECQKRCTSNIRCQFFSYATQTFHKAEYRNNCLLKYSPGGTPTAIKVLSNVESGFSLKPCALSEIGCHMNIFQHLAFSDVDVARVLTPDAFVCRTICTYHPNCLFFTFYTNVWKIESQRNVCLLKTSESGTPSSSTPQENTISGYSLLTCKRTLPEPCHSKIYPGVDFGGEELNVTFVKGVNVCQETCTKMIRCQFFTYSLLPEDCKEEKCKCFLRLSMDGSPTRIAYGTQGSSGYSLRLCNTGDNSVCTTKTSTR
T1 sequence (P03952 391-638, chain 2 of 2): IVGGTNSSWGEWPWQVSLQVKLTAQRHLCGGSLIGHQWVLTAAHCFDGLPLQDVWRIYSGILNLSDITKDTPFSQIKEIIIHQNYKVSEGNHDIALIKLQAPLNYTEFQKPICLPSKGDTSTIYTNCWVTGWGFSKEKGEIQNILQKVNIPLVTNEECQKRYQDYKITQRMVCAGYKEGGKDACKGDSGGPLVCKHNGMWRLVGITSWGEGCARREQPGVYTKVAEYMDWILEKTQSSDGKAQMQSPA

| Binder | Human pKal ELISA (T/B) |
| --- | --- |
| M76-F02 (Fab, V domains shown, Fab fragment (E. coli TG1); printed HC runs into the start of CH1) VH: EVQLLESGGGLVQPGGSLRLSCAASGFTFSLYDMNWVRQAPGKGLEWVSGISPSGGQTMYADSVKGRFTISRDNSKNTLYLQMNSLRAEDTAVYYCARQPMISAFDIWGQGTMVTVSS VL: DIQMTQSPSSLSASVGDRVTITCRASQTIDNYLHWYQQKPGKAPKVLIHDASSLQSGVPPRFSGSGSGTDFTLTISSLQPEDFATYYCQQSYDTPQYTFGQGTKLEIK | 6.4 T/B (target signal / background signal) |
| M76-G02 (Fab, V domains shown, Fab fragment (E. coli TG1); printed HC runs into the start of CH1) VH: EVQLLESGGGLVQPGGSLRLSCAASGFTFSLYAMWWVRQAPGKGLEWVSYISSSGGFTSYADSVKGRFTISRDNSKNTLYLQMNSLRAEDTAVYYCARYRVGVAATDYWGQGTLVTVSS VL: not shown | 10.3 T/B (target signal / background signal) |
| M29-G10 (Fab, V domains shown, Fab fragment (E. coli TG1); printed HC runs into the start of CH1) VH: EVQLLESGGGLVQPGGSLRLSCAASGFTFSFYKMIWVRQAPGKGLEWVSSISSSGGSTQYADSVKGRFTISRDNSKNTLYLQMNSLRAEDTAVYYCARDRVDLGYLDYWGQGTLVTVSS VL: DIQMTQSPSSLSSSVGDSATITCRASQSISIYLNWYQQKPGKAPKILIYGASQLESGVPSRFSGSGSGTDFTLTVSGLQPEDFATYWCQQSYNVPYTFGQGTKLEIK | 16.4 T/B (target signal / background signal) |
| M8-H04 (Fab, V domains shown, Fab fragment (E. coli TG1); printed HC runs into the start of CH1) VH: EVQLLESGGGLVQPGGSLRLSCAASGFTFSGYWMGWVRQAPGKGLEWVSSISSSGGWTQYADSVKGRFTISRDNSKNTLYLQMNSLRAEDTATYYCARDDEIAAGGAFDIWGQGAMVTVSS VL: DIQMTQSPSSLSASIGDRVTITCRASQYISTYLNWYEQKPGKAPKLLIYGTSSLQSGVPSRFSGSGSGTEFSLTISSLQPEDFATYYCQQSFTTPFTFGQGTKLEIK | 3.3 T/B (target signal / background signal) |
| M9-A03 (Fab, V domains shown, Fab fragment (E. coli TG1); printed HC runs into the start of CH1) VH: not shown VL: DIQMTQSPSSLSASLGDRVTITCRASQNIDIYLNWYQQTPGKAPKLLIYGAYNLQSGVPSRFSGSGSGTDFTLTISSLQPEDFGTYYCQQSYGTPVFGQGTKLEIK | 14.4 T/B (target signal / background signal) |
| M74-A07 (Fab, V domains shown, Fab fragment (E. coli TG1); printed HC runs into the start of CH1) VH: EVQLLESGGGLVQPGGSLRLSCAASGFTFSQYLMMWVRQAPGKGLEWVSSIYPSGGYTSYADSVKGRFTISRDNSKNTLYLQMNSLRAEDTAVYYCARVSTAVADNDYWGQGTLVTVSS VL: DIQMTQSPSSLSASVRDRVTITCRTSQNINTYLNWYYQAPGRAPKLLIFGVSSLHRGVSSRFSGSGDGTEFTLTISSLQPEDIGTYFCQQSYSSPWTFGQGTKVEIK | 8.6 T/B (target signal / background signal) |
| M6-A06 (Fab, V domains shown, Fab fragment (E. coli TG1); printed HC runs into the start of CH1) VH: EVQLLESGGGLVQPGGSLRLSCAASGFTFSLYQMTWVRQAPGKGLEWVSGIWPSGGFTDYADSVKGRFTISRDNSKNTLYLQMNSLRAEDTAVYYCARVSTAVADNDYWGQGTLVTVSS VL: DIQMTQSPSSLSASVGDSVTISCRASQSISMYLNWYQHKPGKAPKLLIYGTSSLQSGVPSRFSGSGPGGTDFTLTISSLQPEDFATYYCQQSYSAPWTFGQGTKVEIK | 11.7 T/B (target signal / background signal) |
| M6-D03 (Fab, V domains shown, Fab fragment (E. coli TG1); printed HC runs into the start of CH1) VH: EVQLLESGGGLVQPGGSLRLSCAASGFTFSKYFMGWVRQAPGKGLEWVSVIGSSGGWTSYADSVKGRFTISRDNSKNTLYLQMNSLRAEDTAVYYCARVSTAVADNDYWGQGTLVTVSS VL: not shown | 15.5 T/B (target signal / background signal) |
| M76-H02 (Fab, V domains shown, Fab fragment (E. coli TG1); printed HC runs into the start of CH1) VH: EVQLLESGGGLVQPGGSLRLSCAASGFTFSMYWMQWVRQAPGKGLEWVSYIYPSGGPTKYADSVKGRFTISRDNSKNTLYLQMNSLRAEDTAVYYCARPSGSYGDAFDIWGQGTMVTVSS VL: DIQMTQSPSSLSASEGDRVTITCRASQDISVYLNWYQMKSGKAPKLLIYGGASLQSGVPARFSGSGYGTDFTLTITDLRPEDFATYYCQQSYSLPFTFGGGTKVEIK | 13.4 T/B (target signal / background signal) |
| M29-G08 (Fab, V domains shown, Fab fragment (E. coli TG1); printed HC runs into the start of CH1) VH: EVQLLESGGGLVQPGGSLRLSCAASGFTFSYYHMWWVRQAPGKGLEWVSGISPSGGFTFYADSVKGRFTISRDNSKNTLYLQMNSLRAEDTAVYYCARDYYYDSSGYSPLGYWGQGTLVTVSS VL: DIQMTQSPATLSASPGETVTLSCRASQNIGNDVAWYRQRPGQAPRLLIHHASTRAYGIPARLRGSGSATEFTLTITSLEPEDFAIYYCQQFYDWPAHTFALGTRLEIKR | 40.4 T/B (target signal / background signal) |
| M76-G06 (Fab, V domains shown, Fab fragment (E. coli TG1); printed HC runs into the start of CH1) VH: EVQLLESGGGLVQPGGSLRLSCAASGFTFSGYIMHWVRQAPGKGLEWVSWIYPSGGWTEYADSVKGRFTISRDNSKNTLYLQMNSLRAEDTAVYYCARDAPGVGAIDYWGQGTLVTVSS VL: DIQMTQSPSSLSASVRDRVTITCRASQSISTYLNWYQQKPGEAPKLLVFAASSLQSGVPSRFSGSGSGTDFTLSISSLQPEDFATYYCQQSYSTPHTFGQGAKVEIK | 11.8 T/B (target signal / background signal) |
| M8-C04 (Fab, V domains shown, Fab fragment (E. coli TG1); printed HC runs into the start of CH1) VH: EVQLLESGGGLVQPGGSLRLSCAASGFTFSYYPMQWVRQAPGKGLEWVSYIYPSGGLTSYADSVKGRFTISRDNSKNTLYLQMNSLRAEDTAVYYCARLFYGSGSVGFEYWGQGTLVTVSS VL: QSALTQPPSVSVSPGQTASITCSGDKLGDKYTSWHQQKPGQSPVLVIYQDSKRPSGIPERFSGSNSGNTATLTISGTQAMDEADYYCQAWDSSTVFGGGTRLTVL | 44.7 T/B (target signal / background signal) |
| M8-D05 (Fab, V domains shown, Fab fragment (E. coli TG1); printed HC runs into the start of CH1) VH: EVQLLESGGGLVQPGGSLRLSCAASGFTFSLYNMNWVRQAPGKGLEWVSSISPSGGFTDYADSVKGRFTISRDNSKNTLYLQMNSLRAEDTAVYYCARDLDLGILDYWGQGTLVTVSS VL: DIQMTQSPSFVSASVGDRVTITCRASQDISSWLVWYQQKPGKGPKLLIYDASNLQSGVPSRFSGGGSGTHFTLTISSLQPEDFATYYCQQADGFPLTFGGGTKVEMK | 11.9 T/B (target signal / background signal) |
| M77-H04 (Fab, V domains shown, Fab fragment (E. coli TG1); printed HC runs into the start of CH1) VH: EVQLLESGGGLVQPGGSLRLSCAASGFTFSYYTMIWVRQAPGKGLEWVSGIRSSGGGTRYADSVKGRFTISRDNSKNTLYLQMNSLRAEDTAVYYCAKDGSRYSYGSIYYYYGMDAWGQGTTVTVSS VL: not shown | 7.6 T/B (target signal / background signal) |

Next, values leading:

| Human pKal ELISA (T/B) | Binder |
| --- | --- |
| 28.2 T/B (target signal / background signal) | M8-G09 (Fab, V domains shown, Fab fragment (E. coli TG1); printed HC runs into the start of CH1) VH: EVQLLESGGGLVQPGGSLRLSCAASGFTFSLYEMLWVRQAPGKGLEWVSVIYPSGGYTDYADSVKGRFTISRDNSKNTLYLQMNSLRAEDMAVYYCARSFSGFGEIDYWGQGTLVTVSS VL: DIQMTQSPSSLSASVGDTVTITCRASQGVSYYLAWFQQKPGKAPKSLIYGASSLQSGVPSKFSGSGSGTVFTLTISSLQPDDFATYYCQQYNTYPPTFGQGTRLDIK |
| 16.1 T/B (target signal / background signal) | M77-C07 (Fab, V domains shown, Fab fragment (E. coli TG1); printed HC runs into the start of CH1) VH: EVQLLESGGGLVQPGGSLRLSCAASGFTFSLYIMGWVRQAPGKGLEWVSGIYPSGGFTMYADSVKGRFTISRDNSKNTLYLQMNSLRAEDTAVYYCARESSGVAAPDYWGQGTLVTVSS VL: DIQMTQSPSTLSASVGDRVTITCRASQNISSYLNWYQQKPGKAPKLLIYAASSLQSGVPSRFSGSGSGTDFTLTISSLQPEDFATYSCQQSYSTPRTFGQGTKVEIK |
| 18.5 T/B (target signal / background signal) | M6-G05 (Fab, V domains shown, Fab fragment (E. coli TG1); printed HC runs into the start of CH1) VH: EVQLLESGGGLVQPGGSLRLSCAASGFTFSRYRMVWVRQAPGKGLEWVSSIYPSGGMTAYADSVKGRFTISRDNSKNTLYLQMNSLRAEDTAVYYCARDAVGIGDAFDIWGQGTMVTVSS VL: DIQMTQSPSSLSASVGDRVTITCRASQSISTYLNWYQLKPGKAPKLLIYNAFSMERGVPSTISGSGSGTDFTLTISSLQPEDFATYYCQQSYTTPTTFGQGTKVEIK |
| 23.4 T/B (target signal / background signal) | M6-A08 (Fab, V domains shown, Fab fragment (E. coli TG1); printed HC runs into the start of CH1) VH: EVQLLESGGGLVQPGGSLRLSCAASGFTFSPYPMQWVRQAPGKGLEWVSSISSSGGMTEYADSVKGRFTISRDNSKNTLYLQMNSLRAEDTAVYYCARDDYGGKGGAFDIWGQGTMVTVSS VL: DIQMTQSPSSLSASVGDRVTITCRASQRISFYLNWFQQKPGKAPNLLIYGASSLQSGVPSRFSGSGSGTDFTLTISSLQPKDFGTYYCQQTFSTPNTFGQGTKLEIK |
| 8.8 T/B (target signal / background signal) | M8-E06 (Fab, V domains shown, Fab fragment (E. coli TG1); printed HC runs into the start of CH1) VH: EVQLLESGGGLVQPGGSLRLSCAASGFTFSHYFMTWVRQAPGKGLEWVSSIVPSGGMTQYADSVKGRFTISRDNSKNTLYLQMNSLRAEDTAVYYCARDSYSSSWFDIWGQGTMVTVSS VL: not shown |
| 16 T/B (target signal / background signal) | M6-D08 (Fab, V domains shown, Fab fragment (E. coli TG1); printed HC runs into the start of CH1; The LC is printed with an amber codon 'q' (WYqQK), written here as Q) VH: EVQLLESGGGLVQPGGSLRLSCAASGFTFSRYHMVWVRQAPGKGLEWVSSISPSGGWTNYADSVKGRFTISRDNSKNTLYLQMNSLRAEDTAMYYCAREMATIAGQFDPWGQGTLVTVSS VL: DIQMTQSPSSLSASVGDRVTITCRASQSISSYLNWYQQKPGKAPKLLIYGASSLQSGVPSRFSGSGSGTDFTLTISSLQPEDSATYYCQQSYTRWTFGQGTKVEIK |

Each binder was assayed against human plasma kallikrein (human, UniProt P03952 20-390; P03952 391-638) (assay: cell-based or functional assay).
Target sequence in this assay (P03952 20-390, chain 1 of 2): as the sequence (P03952 20-390, chain 1 of 2) above
Target sequence in this assay (P03952 391-638, chain 2 of 2): as the sequence (P03952 391-638, chain 2 of 2) above

| % inhibition at 10 nM [%] | Binder |
| --- | --- |
| 93 | M206-A06 (Fab, V domains shown) VH: EVQLLESGGGLVQPGGSLRLSCAASGFTFSNYMMGWVRQAPGKGLQWVSSISPSGGLTKYADSVKGRFTISRDNSKNTLYLQMNSLRAEDTAVYYCARVARGIAARSRTSYFDYWGQGTLVTVSS VL: DIQMTQSPGTLSLSPGERATLSCRTSQFVNSNYLAWYQQTPGQAPRLLIYGASSRATGIPDRFSGTGYGTDFTLTISRLEPEDYGTYYCQQSSRTPWTFGQGTRVEIK |
| 90.9 | M207-A04 (Fab, V domains shown) VH: EVQLLESGGGLVQPGGSLRLSCAASGFTFSHYLMTWVRQAPGKGLEWVSYISPSGGHTIYADSVKGRFTISRDNSKNTLYLQMNSLRAEDTAVYYCARVARGIAARSRTRSFDYWGQGTLVTVSS VL: DIQMTQSPGTLSLSPGERATLSCRTSQFVNSNYLAWYQQTPGQAPRLLIYGASSRATGIPDRFSGTGYGTDFTLTISRLEPEDYGTYYCQQSSRTPWTFGQGTRVEIK |
